Measurements from patent US20200171136A1 (SUMITOMO DAINIPPON PHARMA, published 2020).
Read-outs that look alike come from different tables or passages of the source. Values belong to the binder of their own block, whether it stands above or below them.

What was measured:
Experiment in all cases: cell-based or functional assay
[1] = target: T1, Endoplasmic reticulum aminopeptidase 1 (ERAP1) (UniProt Q9NZ08 1-941, limits assumed)
[2] = target: T1, Endoplasmic reticulum aminopeptidase 1 …; remark: listed apart in the source
[3] = target: T1, Endoplasmic reticulum aminopeptidase 1 …; remark: listed apart in the source
[4] = target: T1, Endoplasmic reticulum aminopeptidase 1 …; remark: listed apart in the source
[5] = target: T1, Endoplasmic reticulum aminopeptidase 1 …; remark: listed apart in the source
[6] = target: T1, Endoplasmic reticulum aminopeptidase 1 …; remark: listed apart in the source

T1 sequence (Q9NZ08 whole entry): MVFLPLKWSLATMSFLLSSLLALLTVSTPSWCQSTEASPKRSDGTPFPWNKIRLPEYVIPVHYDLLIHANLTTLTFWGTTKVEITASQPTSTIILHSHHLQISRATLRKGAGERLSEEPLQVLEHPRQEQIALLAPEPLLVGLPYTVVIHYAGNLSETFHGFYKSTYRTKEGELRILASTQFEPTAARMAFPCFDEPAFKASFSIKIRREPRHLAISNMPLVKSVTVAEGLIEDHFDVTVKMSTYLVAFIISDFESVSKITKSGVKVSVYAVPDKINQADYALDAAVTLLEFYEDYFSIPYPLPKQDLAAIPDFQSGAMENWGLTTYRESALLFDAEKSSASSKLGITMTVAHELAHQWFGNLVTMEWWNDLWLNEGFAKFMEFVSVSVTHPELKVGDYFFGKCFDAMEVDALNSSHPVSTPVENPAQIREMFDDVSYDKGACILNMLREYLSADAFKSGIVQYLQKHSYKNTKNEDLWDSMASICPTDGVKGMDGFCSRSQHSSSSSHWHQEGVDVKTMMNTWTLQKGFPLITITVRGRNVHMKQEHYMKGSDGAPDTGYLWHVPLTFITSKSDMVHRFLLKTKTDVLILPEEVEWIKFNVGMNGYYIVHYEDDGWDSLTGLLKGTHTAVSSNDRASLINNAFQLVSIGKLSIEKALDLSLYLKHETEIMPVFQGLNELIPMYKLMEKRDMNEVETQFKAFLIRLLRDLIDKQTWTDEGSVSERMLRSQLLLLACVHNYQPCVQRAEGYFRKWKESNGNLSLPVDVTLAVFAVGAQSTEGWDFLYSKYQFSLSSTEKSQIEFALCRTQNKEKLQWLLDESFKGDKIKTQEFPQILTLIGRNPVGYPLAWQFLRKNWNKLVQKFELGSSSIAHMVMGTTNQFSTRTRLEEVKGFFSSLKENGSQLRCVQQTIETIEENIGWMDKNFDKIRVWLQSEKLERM

- formation rate of … (SEQ ID NO: 19)(%) [1]: 0%
B1: peptide ICGLYDGMEHL (SEQ ID NO: 192) (peptide)
peptide: ICGLYDGMEHL

- formation rate of … (SEQ ID NO: 19)(%) [3]: 2.4%
B3: peptide VCGLYDGMEHL (SEQ ID NO: 184) (peptide)
peptide: VCGLYDGMEHL

- formation rate of … (SEQ ID NO: 19)(%) [3]: 0%
B6: peptide WCGLYDGMEHL (SEQ ID NO: 182) (peptide)
peptide: WCGLYDGMEHL

- formation rate of … (SEQ ID NO: 19)(%) [1]: 0%
B11: peptide LCGLYDGMEHL (SEQ ID NO: 193) (peptide)
peptide: LCGLYDGMEHL

- formation rate of … (SEQ ID NO: 19)(%) [1]: 5.8%
B12: peptide MCGLYDGMEHL (SEQ ID NO: 195) (peptide)
peptide: MCGLYDGMEHL

- formation rate of … (SEQ ID NO: 19)(%) [4]: 0%
B13: peptide CWGLYDGMEHL (SEQ ID NO: 171) (peptide)
peptide: CWGLYDGMEHL

- formation rate of … (SEQ ID NO: 19)(%) [1]: 2.9%
B14: peptide ECGLYDGMEHL (SEQ ID NO: 189) (peptide)
peptide: ECGLYDGMEHL

- formation rate of … (SEQ ID NO: 43)(%) [6]: 0.7%
B16: peptide YCVLQELNVTV (SEQ ID NO: 160) (peptide)
peptide: YCVLQELNVTV

- formation rate of … (SEQ ID NO: 19)(%) [4]: 0%
B17: peptide CYGLYDGMEHL (SEQ ID NO: 172) (peptide)
peptide: CYGLYDGMEHL

- formation rate of … (SEQ ID NO: 43)(%) [6]: 1.1%
B19: peptide GCVLQELNVTV (SEQ ID NO: 149) (peptide)
peptide: GCVLQELNVTV

- formation rate of … (SEQ ID NO: 19)(%) [3]: 22.2%
B21: peptide SCGLYDGMEHL (SEQ ID NO: 180) (peptide)
peptide: SCGLYDGMEHL

- formation rate of … (SEQ ID NO: 19)(%) [1]: 17.6%
B22: peptide FCGLYDGMEHL (SEQ ID NO: 196) (peptide)
peptide: FCGLYDGMEHL

- formation rate of … (SEQ ID NO: 19)(%) [3]: 0%
B24: peptide RCGLYDGMEHL (SEQ ID NO: 186) (peptide)
peptide: RCGLYDGMEHL

- formation rate of … (SEQ ID NO: 19)(%) [3]: 19.2%
B25: peptide PCGLYDGMEHL (SEQ ID NO: 179) (peptide)
peptide: PCGLYDGMEHL

- formation rate of … (SEQ ID NO: 19)(%) [1]: 3.2%
B26: peptide DCGLYDGMEHL (SEQ ID NO: 188) (peptide)
peptide: DCGLYDGMEHL

- formation rate of … (SEQ ID NO: 19)(%) [1]: 10.4%
B30: peptide GCGLYDGMEHL (SEQ ID NO: 190) (peptide)
peptide: GCGLYDGMEHL

- formation rate of … (SEQ ID NO: 19)(%) [3]: 5.7%
B33: peptide YCGLYDGMEHL (SEQ ID NO: 183) (peptide)
peptide: YCGLYDGMEHL

- formation rate of … (SEQ ID NO: 19)(%) [1]: 18.2%
B34: peptide NCGLYDGMEHL (SEQ ID NO: 187) (peptide)
peptide: NCGLYDGMEHL

- formation rate of … (SEQ ID NO: 43)(%) [6]: 1.3%
B37: peptide SCVLQELNVTV (SEQ ID NO: 157) (peptide)
peptide: SCVLQELNVTV

- formation rate of … (SEQ ID NO: 19)(%) [1]: 0%
B39: peptide HCGLYDGMEHL (SEQ ID NO: 191) (peptide)
peptide: HCGLYDGMEHL

- formation rate of … (SEQ ID NO: 19)(%) [1]: 0%
B40: peptide KCGLYDGMEHL (SEQ ID NO: 194) (peptide)
peptide: KCGLYDGMEHL

- formation rate of … (SEQ ID NO: 19)(%) [3]: 3.6%
B41: peptide QCGLYDGMEHL (SEQ ID NO: 178) (peptide)
peptide: QCGLYDGMEHL

- formation rate of … (SEQ ID NO: 19)(%) [3]: 7.3%
B42: peptide TCGLYDGMEHL (SEQ ID NO: 181) (peptide)
peptide: TCGLYDGMEHL

The next lines start with the binder.

B2: peptide CLVLQELNVTV (SEQ ID NO: 93) (peptide)
peptide: CLVLQELNVTV
- formation rate (%) 1 hr later [2]: 31.1%
- formation rate (%) 2 hr later [2]: 36.9%
- formation rate (%) 4 hr later [2]: 38.1%
- formation rate (%) 8 hr later [2]: 36.1%

B4: peptide CSGLYDGMEHL (SEQ ID NO: 177) (peptide)
peptide: CSGLYDGMEHL
- formation rate of … (SEQ ID NO: 19)(%) [4]: 1.1%

B5: peptide CHGLYDGMEHL (SEQ ID NO: 165) (peptide)
peptide: CHGLYDGMEHL
- formation rate of … (SEQ ID NO: 19)(%) [5]: 0%

B7: peptide CAVLQELNVTV (SEQ ID NO: 92) (peptide)
peptide: CAVLQELNVTV
- formation rate (%) 1 hr later [2]: 46.1%
- formation rate (%) 2 hr later [2]: 49.9%
- formation rate (%) 4 hr later [2]: 51.3%
- formation rate (%) 8 hr later [2]: 53.5%

B8: peptide CKGLYDGMEHL (SEQ ID NO: 167) (peptide)
peptide: CKGLYDGMEHL
- formation rate of … (SEQ ID NO: 19)(%) [5]: 0%

B9: peptide CLGLYDGMEHL (SEQ ID NO: 90) (peptide)
peptide: CLGLYDGMEHL
- formation rate (%) 1 hr later [2]: 58.3%
- formation rate (%) 2 hr later [2]: 94.9%
- formation rate (%) 4 hr later [2]: 88.4%
- formation rate (%) 8 hr later [2]: 88.3%

B10: peptide CMGLYDGMEHL (SEQ ID NO: 91) (peptide)
peptide: CMGLYDGMEHL
- formation rate (%) 1 hr later [2]: 90.6%
- formation rate (%) 2 hr later [2]: 103%
- formation rate (%) 4 hr later [2]: 96%
- formation rate (%) 8 hr later [2]: 101%

B15: peptide CRGLYDGMEHL (SEQ ID NO: 174) (peptide)
peptide: CRGLYDGMEHL
- formation rate of … (SEQ ID NO: 19)(%) [4]: 0%

B18: peptide CMVLQELNVTV (SEQ ID NO: 94) (peptide)
peptide: CMVLQELNVTV
- formation rate (%) 1 hr later [2]: 28.7%
- formation rate (%) 2 hr later [2]: 34.5%
- formation rate (%) 4 hr later [2]: 36.5%
- formation rate (%) 8 hr later [2]: 36.8%

B20: peptide CVGLYDGMEHL (SEQ ID NO: 173) (peptide)
peptide: CVGLYDGMEHL
- formation rate of … (SEQ ID NO: 19)(%) [4]: 0%

B23: peptide CPGLYDGMEHL (SEQ ID NO: 169) (peptide)
peptide: CPGLYDGMEHL
- formation rate of … (SEQ ID NO: 19)(%) [5]: 0%

B27: peptide CFGLYDGMEHL (SEQ ID NO: 168) (peptide)
peptide: CFGLYDGMEHL
- formation rate of … (SEQ ID NO: 19)(%) [5]: 0%

B28: peptide CDGLYDGMEHL (SEQ ID NO: 176) (peptide)
peptide: CDGLYDGMEHL
- formation rate of … (SEQ ID NO: 19)(%) [4]: 25%

B29: peptide ACGLYDGMEHL (SEQ ID NO: 185) (peptide)
peptide: ACGLYDGMEHL
- formation rate of … (SEQ ID NO: 19)(%) [3]: 5.2%

B31: peptide CVLQELNVTV (SEQ ID NO: 99) (peptide)
peptide: CVLQELNVTV
- formation rate (%) 1 hr later [2]: 83.4%
- formation rate (%) 2 hr later [2]: 85.6%
- formation rate (%) 4 hr later [2]: 78.8%
- formation rate (%) 8 hr later [2]: 83.9%

B32: peptide CGLYDGMEHL (SEQ ID NO: 98) (peptide)
peptide: H-CGLYDGMEHL-OH
- formation rate (%) 1 hr later [2]: 95.1%
- formation rate (%) 2 hr later [2]: 106%
- formation rate (%) 4 hr later [2]: 100%
- formation rate (%) 8 hr later [2]: 101%

B35: peptide CQGLYDGMEHL (SEQ ID NO: 162) (peptide)
peptide: CQGLYDGMEHL
- formation rate of … (SEQ ID NO: 19)(%) [5]: 56.9%

B36: peptide ACVLQELNVTV (SEQ ID NO: 143) (peptide)
peptide: ACVLQELNVTV
- formation rate of … (SEQ ID NO: 43)(%) [6]: 1.8%

B38: peptide CGGLYDGMEHL (SEQ ID NO: 164) (peptide)
peptide: CGGLYDGMEHL
- formation rate of … (SEQ ID NO: 19)(%) [5]: 0%

B43: peptide CIGLYDGMEHL (SEQ ID NO: 166) (peptide)
peptide: CIGLYDGMEHL
- formation rate of … (SEQ ID NO: 19)(%) [5]: 0.4%

B44: peptide CAGLYDGMEHL (SEQ ID NO: 89) (peptide)
peptide: CAGLYDGMEHL
- formation rate (%) 1 hr later [2]: 87.8%
- formation rate (%) 2 hr later [2]: 99.4%
- formation rate (%) 4 hr later [2]: 103%
- formation rate (%) 8 hr later [2]: 97.5%

B45: peptide CTGLYDGMEHL (SEQ ID NO: 170) (peptide)
peptide: CTGLYDGMEHL
- formation rate of … (SEQ ID NO: 19)(%) [4]: 89.4%

B46: peptide CNGLYDGMEHL (SEQ ID NO: 175) (peptide)
peptide: CNGLYDGMEHL
- formation rate of … (SEQ ID NO: 19)(%) [4]: 82.2%

B47: peptide CEGLYDGMEHL (SEQ ID NO: 163) (peptide)
peptide: CEGLYDGMEHL
- formation rate of … (SEQ ID NO: 19)(%) [5]: 6.2%
